This note sets out measurements from PMC9293779, “Elucidation of binding preferences of YEATS domains to site-specific acetylated nucleosome core particles” (The Journal of Biological Chemistry, 2022).

Data set [1] deals with H3K9-acetylated NCP (human) (UniProt P04908). In words: MST; YEATS domain labelled with a His-tag labeling kit; 10 mM Hepes-NaOH pH 7.4, 150 mM NaCl; room temperature; Monolith NT.115; fitted to the Hill equation, K1/2 = half-saturation concentration; biological triplicate.
Data set [2] addresses H4K12-acetylated NCP (human) (UniProt P04908). The data set is described as above.
The target in data set [3] is H4K5-acetylated NCP (human) (UniProt P04908). The data set is described as above.
Data set [4] addresses H4K5/K8-diacetylated NCP (human) (UniProt P04908). The description is as above.
For data set [5], the target named is H4K5/K8/K12/K16-tetra-acetylated NCP (human) (UniProt P04908). The description is as above.
The target in data set [6] is H4K8-acetylated NCP (human) (UniProt P04908). Described as above.
For data set [7], the target named is H4K8/K12-diacetylated NCP (human) (UniProt P04908). The data set is described as above.
In data set [8] the target is unmodified nucleosome core particle (NCP) (human) (UniProt P04908). Described as above.
In the next data set the test system is AF9-YEATS (human). The data set is described as follows: MST. Conditions: NCP plate assay: 10 mM Tris-HCl pH 7.5, 150 mM NaCl, 25 C, 1 h, 5 pmol NCP, 25 pmol protein, MST buffer not in material.
For a further data set, the system named is GAS41-YEATS (human). The data set is described as follows: MST. As to conditions: NCP plate assay: 10 mM Tris-HCl pH 7.5, 150 mM NaCl, 25 C, 1 h, 5 pmol NCP, 25 pmol protein; MST buffer not in material.
In another data set the test system is YEATS2-YEATS (human). The data set is described as follows: MST. Conditions: NCP plate assay: 10 mM Tris-HCl pH 7.5, 150 mM NaCl, 25 C, 1 h, 5 pmol NCP, 25 pmol protein; MST buffer not in material.
A further data set concerns AF9-YEATS E57A (human). In words: MST. Conditions: NCP plate assay: 10 mM Tris-HCl pH 7.5, 150 mM NaCl, 25 C, 1 h, 5 pmol NCP, 25 pmol protein, MST buffer not in material.
Setting [9] is: histone H4K5ac/K8ac/K12ac/K16ac.

A value given as a limit tells only on which side of the number the result lay.

Chain of AF9-YEATS domain, polyhistidine-tagged (microscale thermophoresis) (P42568 1-138): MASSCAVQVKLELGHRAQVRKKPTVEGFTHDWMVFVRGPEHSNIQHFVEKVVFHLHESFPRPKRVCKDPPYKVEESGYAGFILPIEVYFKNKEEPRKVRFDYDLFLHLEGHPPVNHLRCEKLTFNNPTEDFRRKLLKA

For “AF9-YEATS domain, polyhistidine-tagged (microscale thermophoresis) (from UniProt P42568 1-138) (domain or fragment)”, the K1/2 (half-saturation concentration) in data set [1] came out at 16 nM; in data set [2] it was 140 nM; in data set [3], 120 nM; in data set [4], 30 nM; in data set [5], 25 nM; in data set [6], 75 nM. Moreover, the K1/2 (half-saturation concentration) turned out to be 41 nM in data set [7] and 0.14 µM in [8].

As to unmodified NCP, the K half in the data set with AF9-YEATS (human) came out at 140 nM; in the data set with GAS41-YEATS (human) it was 1400 nM; in the data set with YEATS2-YEATS (human), 2.6 µM.

Substance H4K5ac/K8ac NCP came in with a K half in the data set on AF9-YEATS (human) (histone H4K5ac/K8ac) of 30 nM. For the same substance, the binding signal (fold K1/2 increase vs WT) with AF9-YEATS E57A (human) (histone H4K5ac/K8ac) is 1.8.

H4K12ac NCP: the K half in the data set on AF9-YEATS (human) (histone H4K12ac) stood at 140 nM.

In turn, “YEATS2-YEATS domain, polyhistidine-tagged (microscale thermophoresis) (from UniProt Q9ULM3 200-349) (domain or fragment)” showed a K1/2 (half-saturation concentration) in data set [8] of 2.6 µM.

The substance H4K5ac NCP yielded a K half in the data set on AF9-YEATS (human) (histone H4K5ac) of 120 nM.

The substance H4K5ac/K8ac/K12ac/K16ac NCP returned a K half with AF9-YEATS (human) (setting [9]) of 25 nM. Besides, the binding signal (fold K1/2 increase vs WT) in the data set with AF9-YEATS E57A (human) (setting [9]) came out at 1.5.

With “AF9-YEATS E57A mutant (from UniProt P42568 1-138) (domain or fragment)”, the values for the fold increase in K1/2 against the WT in data set [4], in data set [5] and in [7] were 1.8 fold, 1.5 fold and 1.3 fold, respectively.

Turning to H4K8ac/K12ac NCP, the K half with AF9-YEATS (human) (histone H4K8ac/K12ac) turned out to be 41 nM. In the data set on AF9-YEATS E57A (human) (histone H4K8ac/K12ac), this substance yielded a binding signal (fold K1/2 increase vs WT) of 1.3.

In turn, H4K8ac NCP showed a K half with AF9-YEATS (human) (histone H4K8ac) of 75 nM.

In the case of “GAS41-YEATS domain, polyhistidine-tagged (microscale thermophoresis) (from UniProt O95619 15-159) (domain or fragment)”, the K1/2 (half-saturation concentration) in data set [8] came out at 1.4 µM.

As to nucleosome-free 147-bp dsDNA, the results for the K half in the data set with AF9-YEATS (human), in the data set on GAS41-YEATS (human) and in the data set on YEATS2-YEATS (human) were 12000 nM, more than 50000 nM and 8.2 µM, respectively.

As for H3K9ac NCP, the K half in the data set on AF9-YEATS (human) (histone H3K9ac) amounted to 16 nM.
